Laboratory results from publication PMC3458539 (Nucleic Acids Research, 2012).
Changes are numbered by the printed parent chain.

B1: Vibrio cholerae Hfq (wild-type) (natural protein)
chain: MAKGQSLQDPFLNALRRERIPVSIYLVNGIKLQGQIESFDQFVILLKNTVNQMVYKHAISTVVPARPVSHHSGDRPASDRPAEKSEE
B2: VcHfqY25D (distal face RNA-binding mutant of Vibrio cholerae Hfq) (natural protein)
chain: B1 chain with Y25D
B3: VcHfqK56A (proximal face RNA-binding mutant of Vibrio cholerae Hfq) (natural protein)
chain: B1 chain with K56A

Assays:
native MS = target: the molecule itself; experiment: native MS
SEC = target: the molecule itself; experiment: SEC

| Protein | stoichiometry N (native MS) | stoichiometry N (SEC) |
| --- | --- | --- |
| B1 | 6 |  |
| B2 |  | 6 |
| B3 |  | 6 |
